# According to patent US20160009801A1 (EMORY UNIVERSITY, published 2016):
# T1: wild-type murine GPIba on WT (C57BL/6J) mouse platelets (mouse, UniProt O35930 17-734)
# T1 construct: whole, on cells; also called mouse GPIba; WT mouse platelets
# T1 sequence (looked up): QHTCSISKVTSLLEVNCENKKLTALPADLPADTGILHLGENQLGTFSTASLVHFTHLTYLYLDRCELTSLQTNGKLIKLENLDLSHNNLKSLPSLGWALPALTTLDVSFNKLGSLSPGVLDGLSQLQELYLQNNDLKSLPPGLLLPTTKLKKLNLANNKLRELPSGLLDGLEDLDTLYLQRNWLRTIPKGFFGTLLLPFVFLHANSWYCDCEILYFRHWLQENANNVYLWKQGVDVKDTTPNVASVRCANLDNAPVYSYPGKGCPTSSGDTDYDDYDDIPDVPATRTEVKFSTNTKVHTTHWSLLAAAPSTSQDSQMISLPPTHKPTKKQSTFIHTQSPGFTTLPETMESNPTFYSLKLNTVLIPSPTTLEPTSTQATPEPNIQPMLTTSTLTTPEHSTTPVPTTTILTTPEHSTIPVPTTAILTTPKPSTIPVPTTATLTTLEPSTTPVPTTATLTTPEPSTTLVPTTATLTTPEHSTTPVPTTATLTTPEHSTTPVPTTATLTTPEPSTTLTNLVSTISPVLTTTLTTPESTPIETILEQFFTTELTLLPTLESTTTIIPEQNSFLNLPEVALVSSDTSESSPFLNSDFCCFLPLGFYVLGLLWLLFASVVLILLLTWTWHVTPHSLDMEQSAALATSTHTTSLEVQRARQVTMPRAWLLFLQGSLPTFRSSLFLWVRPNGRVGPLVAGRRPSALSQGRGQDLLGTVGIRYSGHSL
# How the values were obtained:
# [1] = target: T2, human glycoprotein Ib alpha (GPIba) on platelets (human, UniProt P07359 17-652); assay: flow cytometry on washed human platelets, FITC goat anti-mouse IgG
# T2 construct: whole, on cells; On platelets GPIba is part of the GPIb-IX-V complex; also called human GPIba; washed human platelets
# [2] = target: T1, wild-type murine GPIba on WT (C57BL/6J) …; assay: flow cytometry, biotin-labeled 5G6 on mouse whole blood, gated on platelets, FITC-streptavidin
# Method: The binding to platelets was analyzed by flow cytometry with gating specific on platelets.
# [3] = target: T3, purified human GPIb-IX complex (human, UniProt P07359 17-652; P13224 26-206; P14770 17-177); assay: ELISA, purified mAb titrated on immobilized purified human GPIb-IX, fitted Kd
# T3 construct: mature; Native complex purified from outdated human apheresis platelets; also called purified human glycoprotein (GP)Ib-IX; immobilized GPIb-IX
# Method: (A, C, D) GPIb-IX or the peptide was immobilized in microtiter plates. Purified mAbs, each identified by the clone name and colored as indicated, and negative controls, in the form of mouse IgG or BSA, were added to the coated wells. The bound Ab was detected with biotinylated goat anti-mouse IgG. Data are presented as the mean SD (n=3).
# After incubation in the blocking buffer (20 mmol L⁻¹ HEPES, 0.2 mol L⁻¹ NaCl, 0.05% Tween-20, 2% BSA, pH 7.4) at room temperature (RT) for 2 h, different doses of normal mouse IgG or purified mAb dissolved in the blocking buffer were added to the wells and incubated for 1 h. The wells were then washed three times with the blocking buffer without BSA and incubated for an additional 1 h with biotinylated goat anti-mouse IgG (1:50 in the blocking buffer). After three washes, the wells were incubated for 1 h with streptavidin alkaline phosphatase (1:2000 in the blocking buffer).
Binder,binding result [1],binding result [2],Kd [3] [nM]
"monoclonal antibody 3D1 (antibody, V domains shown, Mouse hybridoma mAb; also called 3D1.C1; 3D1.E3) VH: QIQLVQSGPELKKPGETVKISCKASGYTFTDFAMHWVKQAPRKGLKWMGWINTETGEPTYADDFKGRFAFSLGTSASTAFLQINNLKNEDTATYFCSSDPLDYWGQGTTLTVSS VL: DVVVTQTPLSLPVSFGDQVSISCRSSQSLTNSYGNTYLSWFLHKPGQSPQLLIYEISNRFSGVPDRFSGSGSGTDFTLKISTIKPEDLGIYYCLQGTHQPWTFGGGTKLEIK",binds,,
"monoclonal antibody 5G6 (antibody, V domains shown, Mouse hybridoma mAb raised against the human GPIba Glu455-Phe478 peptide; also called clone 5G6; 5G6.B4) VH: QVTLKESGPGILQPSQTLSLTCSFSGFSLSTSNMGVVWIRQPSGKGLEWLLHILWNDGKFYNPALKSRLTISKDTYNNQVFLKIANVDTADTATYYCARLFTTTTSGYFDVWGAGTTVTVSS VL: DIQMTQSPASLSASVGETVTITCRASGNIYNYLAWYQQKQGKSPQLLVYNAKTLADGVPSRFSGSGSGTQYSLKINSLQPEDFGSYFCQHFWDTPWTFGGGTKLEIK",,no binding (tested: 4 µg mL^-1),3.29
"monoclonal antibody 15C6 (antibody, V domains shown, Mouse hybridoma mAb; also called 15C6.D3) VH: QVTLKESGPGILQPSQTLSLTCSFSGFSLSTSNMGVVWIRQSSGKGLEWLLHILWNDGKFYNPALKSRLTISKDTYNNQVFLKIANVDTADTATYYCARLFSTTTSGYFDVWGAGTTVTVSS VL: DIQMTQSPASLSASVGETVTITCRASGNIHNYLAWYQQKQGKSPQLLVYNAETLADGVPSRFSGSESGTQYSLKINSLQPEDFGTYYCQHFWDTPWTFGGGTKLEIK",,,28.2
